The values below come from FireProtDB (doi:10.1006/jmbi.1993.1508).

For the data set the following is noted: Bacillus amyloliquefaciens; pH 6.3; 25 °C; Urea; Fluorescence; MES 50 mM; reversible: yes; whole UniProt chain shown.

B1: Ribonuclease wild type, P00648 (protein)
chain: MMKMEGIALKKRLSWISVCLLVLVSAAGMLFSTAAKTETSSHKAHTEAQVINTFDGVADYLQTYHKLPDNYITKSEAQALGWVASKGNLADVAPGKSIGGDIFSNREGKLPGKSGRTWREADINYTSGFRNSDRILYSSDWLIYKTTDHYQTFTKIR
With B1, the denaturant m value stood at 1.92 kcal/mol/M, the “denaturant midpoint (higher = more stable)” value was 4.58 M and the unfolding free energy was determined as 8.82 kcal/mol.
